Laboratory results reported in the nanobody polyreactivity screen of Harvey et al. (2022).

Assay: yeast display, Sf9 membrane polyspecificity reagent, FACS + sequencing; frameworks hold sequencing errors
In short: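 Genes from sorted yeast were amplified by colony PCR, read by MiSeq 2 × 250 sequencing and filtered on CDR length. These cells carried a synthetic nanobody library in Saccharomyces cerevisiae BJ5465 and were sorted by FACS into low and high (top ~1%) gates on anti-HA and streptavidin fluorescence. Polyreactivity is labelled according to the gate of origin.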

## QVQLVESGGGLVQAGGSLRLSCAASGFISGKYAMGWNRQAPGKERELVATIRSGGSTNYADSVKGRFTISRDNAKNTVYLQMNSLKPEDTAVYYCAKRRGSRGVIYDYWGQGTQVTVSS
  polyreactivity (PSR sort gate): high polyreactivity

## QVQLVDSGGGLVQAGGSLRLSCAASGSTFGGNAMGWYRQAPGKERELVAAITGSGGRTFYADSVKGRFTISRDNAKNTVYLQMNSLNPEDTAVYYCAADSYIYSVNYWGQGTQLTVSS
  polyreactivity (PSR sort gate): low polyreactivity

## QVQLVDSGGGLVQAGGSLRLSCAASGSTFWFYAMGWYRQAPGNERELVAVISNSGSTYYADSVKGRFRISRDNAKNTVYLQMNSLKPEDTAVYYCNKDGGGDSYWYDYWGQGTQVTVSS
  polyreactivity (PSR sort gate): low polyreactivity

## QVQLVESGGGLVQAGGSLRLSCAASGITFRRYTMGWYRQAPGKERELVASISSTGSTNYADSVKGRFTISRDNAKNTVYLQMNSLKPEDTAVYYCAARRPYPYVGYEYWGQGTQVTVSS
  polyreactivity (PSR sort gate): high polyreactivity

## QVQRVESGGGLVQAGGSLRLSCAASGSTFEYYAMGWYRQAPGKERELVAAISGGGSTNYADSVKGRFTISRDNAKNTVYLQMNSLTPEVTAVYYCNASDVGSRTSNYWGQGTQVTVSS
  polyreactivity (PSR sort gate): low polyreactivity

## QVHLVESGGGLVQAGGSLRISCAASGYIFSYYAMGWYRQAPGKERELVASITSSGGSTYYADSVKGRFTISRDNAKNTVYLQMNSLKPEYTAEYYCNADVYDTYSPLGYYYWGQGTQVTVSS
  polyreactivity (PSR sort gate): low polyreactivity

## QVQLVESGGGLVQAGGSLRLSCAASGSIYRRYAMGWYRQAPGKERELVAAINQSGGRTYYADSVKGRFTISRDNAKNTVYLQMNSLKPEDTAVYYCAARYYGRVGGDSIGYNYWGQGTQVTVSS
  polyreactivity (PSR sort gate): high polyreactivity

## QVQLVESGGGLVQAGGSLRLSCAASGSTFPQYVMGWYRQEPGKERELVAAITKSGGRTYYADSVKGRFTISRDNAKNTVYLQMNSLKPEDTAVYYCAAVRWDISRFRYYSWGHGTQVTVSS
  polyreactivity (PSR sort gate): high polyreactivity

## QVQLVESGGGLVQAGGSLRLSCAASGSTFPPYAMGWYRQAPGKERELVAAISNVGSTNYADSVKGRFTISRDNAKNTVYLQMNSLKPEETAVYYCAADFWERFALWGWIYLDYDYWGQGTQVTVSS
  polyreactivity (PSR sort gate): low polyreactivity

## QVQLVESGGGLVQAGGSLRLSCAASGSIFVTNAMGWYRQEPGKERELVAAISVSGGSTFYADSVKGRFTISRDNAKNTVYLQMNSLKPEDTAVYYCNTVRSPPGHDYWGQGTQVTVSS
  polyreactivity (PSR sort gate): low polyreactivity

## QIQLVESGGGLVQAGSSLRLSCAASGRTFNTYAMGGYRPAPGNERELVAAITYNGGSTYYADSVKGRFTISRDNAKTTVYLQMNSLKPEYTAVYDCNVRLRTRYRKYDYWGQGTQVTVSS
  polyreactivity (PSR sort gate): high polyreactivity

## QVQLVESGGGLVQAGGSLRLSCAASGFIFSYNAMGWYRQAPGKERVLVAAISSRGGSTYYADSVMGRFTISRDNAKNTVYLQMNSLKPEDTGVSYCAVASRRVYTAPYDYWGQGTQVTVSS
  polyreactivity (PSR sort gate): high polyreactivity

## QVQLVESGGGLVQAGGSLRLSCAASGSIFFYNTMGWYRQAPGKERELVAAISASGGRTYYADSVKGRFTISRDNAKNTVYLQMNSLKPEDTAVYYCAVRVPYRGYTRYDYWGQGTQVTVSS
  polyreactivity (PSR sort gate): high polyreactivity

## QVQLVESAGGLVQAGGSLRLSCAASGRIFRYYAMGWYRQAPGKERELFAAISRSGASTYYADSVKGRFTISRDNAKNTVYLQMNSLIPEDTAVYYCAAGYWPGYSQTYRGGYWGQCTQVTVSS
  polyreactivity (PSR sort gate): high polyreactivity

## QLQHVESGGGLVQAGGSLRLSCAASGSTFYRNAKGWSRQAPGKEREFVADITLGGGSTYYADSVKGRFTISRDHAKNTVYLQMKSLKPEDTAVYFCAVDYWQLNYDYWGQGTQVTVSS
  polyreactivity (PSR sort gate): low polyreactivity

## QVQLVESGGGLVQAGGSLRLSCAASGIIFYGNAMGWYRQAPGKERELVAAITWSGGSTYYADSVKGRFTISRDNAKNTVYLQLTSLKPEDTAVYYCAADFLYGFYYWGQGTQVTVSS
  polyreactivity (PSR sort gate): low polyreactivity

## QVQLVESGGGLVQAGGSLRLSCAASGSIFSGYAMGWYRQAPGKERELVAAITWRGGSTYYADSVKGRFTISRDNAKNTVYLQMNSLKPEDTAVYYCARVWAWSRYDYWGQGTEVTVSS
  polyreactivity (PSR sort gate): high polyreactivity

## QVQLVESGGGLVQAGGSLRLSCAASGRIFYLNGMGWYRQAPGKERELLAAISSSDDSTYYADSVKGRFTISRDNAKNTVYLQMISLKPEDTAVYYCAAGYHHVQNYGDAYYWSELYSWGQGTQVTVSS
  polyreactivity (PSR sort gate): low polyreactivity

## QVQLVESGGALVQAGGSLRLSCAASGSTFRYDMGWYRQAPGKERELVAAITWGGVSTYYADSVKGRFTISRDNAKNTVYLQMNSLKPEDTAVYYCNVVISLQQGDYWGQGTQVTVSS
  polyreactivity (PSR sort gate): low polyreactivity

## QVQLVESGGGLVKAGGSLRLSCAASGFTFNKYAMGWYRQAPGKERESVAAISSSGGSTRYADSVKGRFTISRDNAKNTVYLQMNSLKPADTAVYYCAVYVTPDSGWWLYDYWGQGTHVTVSS
  polyreactivity (PSR sort gate): high polyreactivity

## QVQLVESGGALVQAGGSLRLSCAASGSISTYAIGWYRQAPGKERELVAAMNKRGGSTYYADSVKGRFTISRDNAKNTVDLQMNSLKPADTAVDYCAAGLAHSAAFDYWGQGTQVTVSS
  polyreactivity (PSR sort gate): low polyreactivity

## QVQLVESGGGLVQAGGSLRISCAASGRIFLRNDMGWYRQAPGKERELVAGISSDGSTYYADSVKGRFTISRDNAKNTVYLQMNSLKPEDTAVYYCAAERWGNPTDYQFWRPYDYWGQGTQVTVSS
  polyreactivity (PSR sort gate): low polyreactivity

## QVQLVESGGGLVQAGGSLRLSCAASGRTFGLYAMGWYRQAPGKERELVADINGSGTRTYYADSVKGRFTISRDNAKNTVYLQMNSLKPEDTAVYYCYGRYHWLYYWGQGTQVTVSS
  polyreactivity (PSR sort gate): high polyreactivity

## QVQLVESGGGLVQAGGSLRLSCAASGRIFTTYAKGWYRQAPGKERDLVAAISQNGGSTYYADSVKGRFTISRDNAKNTVYLPMNSLKPEDTAVYYCKAGAAGYYDYDYWGQGTQVTVSS
  polyreactivity (PSR sort gate): low polyreactivity

## QVQLVESGGGLVQAGGSLRLSCAASGYIFVGNAMGWYRQAPGKERELVATIRSSTGNTYADSVKGRFTISRDNAKNTVYLQMNSLKPEDTAVYYCATVYEWPGWGREYGYWGQGTQVTVSS
  polyreactivity (PSR sort gate): low polyreactivity

## QVQLVESGGGLVQAGGSLRLSCAASGSTFYPNAMGWYRQAPGKERELVAAIDRGGSTSYADSVKGRFTISRDNAKNTVYLQMNSLKPEDTAVYYCAVARGGRRKYEYWGQGTQVTVSS
  polyreactivity (PSR sort gate): low polyreactivity

## QVQLVESGGGLVQAGGSLRLSCAASGFIFIRYAMGWYRQAPGKERELVAAISPSGGSTYYADSVKGRFTISRDNAKNTVYLQMNSLKPEDTAVYYCAREWRTYYYFWDHYYIYDYWGQGTQVTVSS
  polyreactivity (PSR sort gate): high polyreactivity

## QVQLVESGGGLVQAGGSLRLSCAASGRIFVSNAMGWYRQAPGKERELVAGITWTSGSTYYADSVKGRFTISRDNAKNTFYLQMNSLKPEDSAVYYCAAEFWYGNALDYWGQGTQVTVSS
  polyreactivity (PSR sort gate): low polyreactivity

## QVQLVESGGGLLQAGGSLRLSCAASVNIFWRYRMGWYRQAPGKERELVAAIRRSGGTTYYADSVKGRFTISRDNAKNTVYFQMNSLKPEDTAVYNCAAGLTVRKFVRFDYWGHGTQVTVSS
  polyreactivity (PSR sort gate): low polyreactivity

## QVQLVESGGGLVQAGGSLRLSCAASGRIFLWYAMGWYRQAPGKERELVAAIWRGGSTYYADSVKGRFTISRDNAKNTVYLQMNSLKPEDTAVYYCNAQRAPHWYYLFDYWGQGTQVTVSS
  polyreactivity (PSR sort gate): low polyreactivity

## QVQLVESGGGLVLAGGSLRLSCAASGRTFVPYAMGWYRQAPGKERELVAAMSQSGGRTYYTDSVKGRFTISGETAKNTVYLQMNSLNPEDTAVYYCAADVRSSIGHFTLYDYWGQGTQVTVSS
  polyreactivity (PSR sort gate): high polyreactivity

## QVQLVESGGGLVQAGGSLRLSCAASGTFSSNAMGWYRQAPGKERELVAAISSTGTTTYYADSVKGRFTISRDNAKNTVYLQMNSLKPEDTAVYYCAKYAYTSVHSWYYYWGQGTQVTVSS
  polyreactivity (PSR sort gate): high polyreactivity

## QVQREESGGGLVQAGGSLRLSCPASGITFWGYVMGWYRQAPGKERELVAAISSSGGRTYYADSVKGRFTISRDNAKNTVYLQMNSMKPEDTAVYYCAARFLYANGDSVDYDYWGQGTQVTVSS
  polyreactivity (PSR sort gate): high polyreactivity

## QVQLVESGGGLVQAGGSLRLSCAASGGTFRVYAMGWYRQAPGKERELVAAITGRGGSTYYADSVKGRFTISRDNAKNTVYLQMNSLKPEDTAVYYCNKESELVEYDYWGQGTQVTVSS
  polyreactivity (PSR sort gate): low polyreactivity

## QVELVESGGGLVQPGGSLRLSCAASGRTFYLNAMGWYRQAPGKEREFVARITWSGGSTYYADSVKGRFTISRDNAKNTVYLQMNSLKPEDTAVYYCAARVRLYRGFTKYDYWGQGTQVTVSS
  polyreactivity (PSR sort gate): high polyreactivity

## QVQLVESGGGLVQAGGSLRLSCAASGRIFYTYAMGWYRQAPGKERELVAGISRGGRTYYADSVKGRFTISRDNAKNSVYLQMNSLKPEDTAVYYCAARLQYGIQYRYDYWGQGTQVTVSS
  polyreactivity (PSR sort gate): high polyreactivity

## QGQLVESGGGLVQAGGSLRLSCAASGLIFTYYDMGWYRQAPGKERELVAAISRRGTSTYYADSVKGRFTISRDNAKNTVYFQMNSLKPEDTEVYYCAADYYYFDSQQGMDYWGQGTQVTVSS
  polyreactivity (PSR sort gate): high polyreactivity

## QVQLVESGGGLVQAGGSLRLSCAASGIIFITYAMGWYRQAPGKERELVAAITSDGNTNYADSVKGRFTISRDNAKNTVYLQMNSLKPEDTAVYYCNAETQYGVLSWHSTRHDYWGQGTQVTVSS
  polyreactivity (PSR sort gate): low polyreactivity

## QDQLVDSGGGLVQAGGSLRLRCGASGRILAWYAMGWYRQAPGKEREFVAGNTGSVGSTYYADSVKGRFTNSRDNEKNTVDLQMNSLKPEDTAVYYCYNEWDSTSGQKHYYWGQGTQVTVSS
  polyreactivity (PSR sort gate): low polyreactivity

## QVQLVESGGGLVQAGGSLRLSCAASGSTINQYAMGWYRQAPGKERELVAAITRRGGSTYYADSVKGRFTISRDNAKNTVYLQMNSLKPEDTAVYYCAAAYPYTTVSYDYWGQGTQVTVSS
  polyreactivity (PSR sort gate): high polyreactivity

## QVQLVESGGGLVQAGGSLRLSCAASGYIFYRYTMGWYRQAPGKERELVAAISFRGGTTYYADSVKGRFTISRDNAKNTVYLQMNSLKPEDTAVYYCAARYGYYTSDYKYYYWGQGTQVTVSS
  polyreactivity (PSR sort gate): high polyreactivity

## QVQLVESGGGLVQAGGSLRLSCAASGRIFSAYAMGWYRQAPGKERELVAAISSGGRTYYADSVKGRFTISRDNAKNTVYLEMYRLKPEDTAVYFCNAVALWGRDYGYWGQGTQVSVSS
  polyreactivity (PSR sort gate): high polyreactivity

## QVQLVESGGGLVQAGGSLRLSCAASGRTFSRNAMGRYRQAPGKERELVATITSDGSTNYADSVKGRFTISRDNAKNTVYLQMNSLKPEDTAVYYCAAGEQSSIIGAHDYWGQGTQVTVSS
  polyreactivity (PSR sort gate): low polyreactivity
